Laboratory results from the RNAGym collection of RNA variant scans (doi:10.1073/pnas.2313332121).
Fewer inactive variants are shown than the library holds.

B1: TPR 5TU (parent)
chain: GGAUCUUCUCGAUCUAACAAAAAAGACAAAUCUGCCACAAAGCUUGAGAGCAUCUUCGGAUGCAGAGGCGGCAGCCUUCGGUGGCGCGAUAGCGCCAACGUUCUCAACUAUGACACGCAAAACGCGUGCUCCGUUGAAUGGAGUUUAUCAUG

Variants of: B1
Experiment: polymerase ribozyme fitness, log enrichment relative to wild type (log ratio); higher = more active; in vitro selection for triplet polymerase activity
Method in brief: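 Only genotypes with ≥10 input reads and ≥1 read per output were kept after Illumina sequencing of input and output libraries. These libraries were PCR-built, transcribed mutants of each subunit of a heterodimeric triplet polymerase ribozyme, each put through one triplicate in vitro selection round with frozen incubation at −7 °C, gel excision of extended constructs, streptavidin-bead capture and RT-PCR. Fitness is a logarithmic ratio of genotype enrichment to wild-type enrichment, from inverse-variance-weighted replicate averages, with the logarithm in base 2.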

Variant	polymerase ribozyme fitness (log ratio)
U33A G92A	≤ -4.2
U33G C95A	-3
U33G U55G G68A C79A G84U G136U	≤ -4.2
C35A C79A G83A C99A	≤ -4.2
C32G U55A G58A G68A C85U G88C C93A A106G C116A U135A	≤ -4.2
U33C C85A	-3.61
U33G C95G C116A	-4.15
U33A U102C A107U C125A	≤ -4.2
C32U C69A G84A C96G U111A	≤ -4.2
C35A G65U G83A G140U	≤ -4.2
C32G U61A G92U C131U	≤ -4.2
U33A A39G U90A U130A	≤ -4.2
U33G G48C U53A C93U C149U	≤ -4.2
U33G G62U C69U C103A G126C	≤ -4.2
G34U C95G A115G C116U G140C U151A	-4.19
C32U A147C	-2.55
C35A C87U	-4.03
C32U A60G A142G	-3.31
G34C	-1.49
G34A	-0.292
G34U	-1.11
C32U G59C A60C C63G C93A C99U A115G	≤ -4.2
U33A C85U U146G A147U A150G	≤ -4.2
G34A U77G C87A A91C C108U G133A	≤ -4.2

Variant	polymerase ribozyme fitness (log ratio)
C35A G70A A89G G92A	≤ -4.2
U33A C43G G50U G84A A89U	≤ -4.2
U33C G143C	≤ -4.2
C32U G84A	-2.55
U33C G59A A60U U145G	-4
C32U U33A U151A	-4.18
C32U	-1.22
U33G U53A G58A	-3.78
G34A U145A	-0.571
G34U A41G G81A G84U C87A C93A A110G	≤ -4.2
G34U C79G G92U C93G U109A G143C	≤ -4.2
C35A G100A C125G C131G	≤ -4.2
U33G G50A A52C C76U C79U A107G U151A	≤ -4.2
U33G A47C U56A A73G G83U C99A	-4.05
U33G A41U G46C C54G G62C G70U C96A A120G G124U	≤ -4.2
C35A C57U C93G U134A U139A	≤ -4.2
C32U A40G C105A	-3.89
G34C A49C A52G U61G C87U C95A	-4.12
G34C A66G G86U A107C G141U	≤ -4.2
U33A G80A	-3.68
C32U G50A A52G G58A C87G C118G	≤ -4.2
U33G U53A	-3.68
G34U C75G G81U C87U A120U	-3.98
U33C G68A	-3.97

Variant	polymerase ribozyme fitness (log ratio)
C35A C85A	-3.65
C32U A49U	-4.14
C32U A49C	-4.13
U33G C72U C95A G126U A137G	≤ -4.2
C35A A66G G70U C87G C96G A121U C149U	≤ -4.2
C32U G88A U145G	≤ -4.2
G34U C36G G59C U148C	≤ -4.2
C32U A37C G68A G80A C87U C95G	≤ -4.2
C35A U56C U82A	-3.49
G34C G58A U77A U82G G86A C105A U127A G141C	≤ -4.2
C32U C54U	-1.22
C35A G94C	-2.74
C35A G94A	-3.56
C32U G42U C79G C129A A138G U146C	≤ -4.2
U33G C43U A60U G88A U109G U135G G143A	-4.09
G34A C87A G141A	≤ -4.2
U33C C36A U55A G83A A89G A142U U148C	≤ -4.2
C32U G80U U102G A113U C125U G126A	≤ -4.2
C32U A52U U90C G128C	≤ -4.2
C35A A64C A98U C99U G152U	≤ -4.2
G34A G74U G94A C116G	≤ -4.2
U33G G50A C63G G94A C95G C116U	≤ -4.2
U33A A41C U53C C57U G65A A66C G67C G80C	≤ -4.2
U33C G50A	-3.85

Variant	polymerase ribozyme fitness (log ratio)
U33A G74A	≤ -4.2
C32G U44A G65A C85G	≤ -4.2
U33G A39C C54U	-3.84
G34U U56A	-1.7
C32U C38U C69A U78A C99G U101A U127C	≤ -4.2
G34A G84A U134G	-2.82
U33C U56C G59C C79A C95U C123A G140U	≤ -4.2
U33G U56A U90A U101G C108G A119U U135C G136A	≤ -4.2
U33A C76G G84C C85G C87G A89G G136C U145A	≤ -4.2
G34U U82G C96G A106G U145C	-3.75
C35A C43U A49U A64G C76U C96A U101G C149U	≤ -4.2
C32U A40U U56C C85U U90A C114U	-4.06
U33A G50C G81A C93G C96U A98G C103G G152U	≤ -4.2
G34A C95U G136A	-0.0966
U33G C35A A66G C93U U104G C105U U134G	≤ -4.2
U33A A41C C87A U130G A147G	≤ -4.2
C35A A41C G59C C87U G100C C105G A121C	≤ -4.2
C32U C76A G83U G92C C114U C123A	≤ -4.2
G34U G58U G74U G81A U102A U104C	≤ -4.2
C32U A41C G58U A60C C75G C96U C114A	≤ -4.2
U33G G42A G58C A91G G100A	≤ -4.2
C35A G50U C69A G74A	≤ -4.2
G34A G140A	-3.88
G34A C75U	-3.68

Variant	polymerase ribozyme fitness (log ratio)
C35A A39G G141U	≤ -4.2
U33G U56A A91U C116U	-3.95
C35A C95G	-4.1
U33G A113C	-4.01
C32G U56A G94A C108U G124C U145A	≤ -4.2
G34A C57G G117A U144A	-3.39
G34A G67U U77C A89C U101G C116G U151C	≤ -4.2
G34A C57A C87U A89U G94U C96A U104A C105G A110U G126U	≤ -4.2
U33G A40C C116A	-3.88
U33A G48A U78C G84A C105U	≤ -4.2
U33A C85U	-3.79
C32U A40C C85G C103A	≤ -4.2
G34A C43A G92U C118U	≤ -4.2
C35A U44A C63U G70A G80C C87G	≤ -4.2
C32U G59U G81A	-3.13
C32G G59C G71C C85A G88A U151A	≤ -4.2
G34U C51U G59U G88A G141U A142G U146G A147U	≤ -4.2
U33A U56A U90A A122C U151G	≤ -4.2
U33G A37U A60C C75U G94U C108U	≤ -4.2
C32U U53A A91C G94A C105G A121U U151C	≤ -4.2
U33C C95U	-2.01
C32U U61A G94C C105U A107U A110U	≤ -4.2
G34U C95U A107G A110G	-3.86
C32U C85U	-1.97

Variant	polymerase ribozyme fitness (log ratio)
U33G C35G A60G A107G	≤ -4.2
U33A U61A	-3.64
G34A A41G A120U	-1.2
U33A A37G C105U A106G	-4.07
G34U G58A G59A C85U U101G A150G	≤ -4.2
G34C U78C A91G U146A	≤ -4.2
C35A G126A	-3.51
C32U C63U A91U C96U A113U G124C	≤ -4.2
G34U A40G C72U C96G	≤ -4.2
C35A C108G C116A A142U	≤ -4.2
C32U G50C C54G A73G G88A C96G	≤ -4.2
G34C G59A G112U A115U C125U	≤ -4.2
C32U U144A	-2.41
G34A A37C C43U C125G U130A C149A	≤ -4.2
C35A A39C C87U G92C A138C A147G	≤ -4.2
G34A C57G A66U A115U U134C A142U U148G	-3.95
U33G U55A G70A G80C	≤ -4.2
C32U A41U	-3.95
G34A G117U A137C A142U	≤ -4.2
G34U G141C	-2.78
U33C G42A G81A A89G A119C C132U	≤ -4.2
U33G A47C A52C U53A A73U C87G	≤ -4.2
G34U C54U A66C A91U A121U	-4.11
C32U U55G U61C G84U G100C	≤ -4.2

Variant	polymerase ribozyme fitness (log ratio)
U33G G81C G83A C87G C105A A120C A121G G143A U148A	≤ -4.2
C32G G92U U127G G152U	-3.98
G34A G48C G59A U102G C114A G143U A147G	≤ -4.2
U33G G59A G94U	-3.39
C35A G81U A97U A98U	-3.76
G34A U55A C69A C76U G80C C87G A89C A107C C116U	≤ -4.2
C32U A49C G92U C99A A115G A147C	≤ -4.2
C35A C79G U151A	≤ -4.2
U33C A49G U77G U130A G133U U135A	≤ -4.2
C32U C125U	-2.22
C32U C93A	-4.11
C32U C69G C72U G88C U135G	≤ -4.2
G34U C85A	-3.91
U33C C57U G80U G83U C87U G128U	≤ -4.2
U33G G83C	-3.6
G34U G83U A115G U145G	≤ -4.2
C35A U53A U61A G62C A64G A66C C87G G152U	≤ -4.2
G34U C51A G84C	≤ -4.2
U33G G117A U134C	-2.88
C35A A52C G67U G68C C76U A115U A120C U134C	≤ -4.2
G34A G50A G68U G71A C76A C85A C125U	≤ -4.2
G34C C87G U90G G92A U148A	≤ -4.2
C35A A39C G83A C114A G117A C123G G140U	≤ -4.2
